Test results as given in patent US20210238260A1.
Blank lines part the entries; values can stand above or below the substance they belong to.

Assays:
[1] = target: Antithrombin III (ATIII) (human) (UniProt P01008); assay: inhibition of FIXa by ATIII, residual FIXa activity; heparin not given
[2] = target: plasma purified human antithrombin III (AT-III), in complex with unfractionated heparin (UFH) (human) (UniProt P01008); assay: inhibition of FIXa by AT-III/UFH, residual activity on Mesyl-D-CHG-Gly-Arg-AMC, pseudo-first-order
[3] = target: antithrombin III (plasma purified human AT-III, Molecular Innovations) (human) (UniProt P01008); assay: AT-III/UFH inhibition of FIXa cleavage of Mesyl-D-CHG-Gly-Arg-AMC; K0.5 = AT-III conc. for 50% inhibition (AT-III varied)
[4] = target: Factor VIIIa (recombinant FVIII, Kogenate FS, activated with alpha-thrombin) (UniProt P00451); assay: apparent functional KD (KD-app): FXa generation by FIXa with FVIIIa titrated, PC/PS vesicles, saturating FX, fluorogenic Spectrafluor FXa
[5] = target: plasma purified human antithrombin III (AT-III), in complex with unfractionated heparin (UFH) (human) (UniProt P01008); assay: K0.5: AT-III conc. (with UFH) for 50% inhibition of FIXa cleavage of Mesyl-D-CHG-Gly-Arg-AMC
FIXa R318Y (human) = FIXa R318Y (human) (UniProt P00740); assay: cell-based or functional assay
FIXa A204M (human) = FIXa A204M (human) (UniProt P00740); assay: cell-based or functional assay
FIXa D203M (human) = FIXa D203M (human) (UniProt P00740); assay: cell-based or functional assay
FIXa F314N/H315S (human) = FIXa F314N/H315S (human) (UniProt P00740); assay: cell-based or functional assay
FIXa D203Y (human) = FIXa D203Y (human) (UniProt P00740); assay: cell-based or functional assay
FIXa R318E (human) = FIXa R318E (human) (UniProt P00740); assay: cell-based or functional assay
FIXa N260S (human) = FIXa N260S (human) (UniProt P00740); assay: cell-based or functional assay
[6] = target: FIXa D85N/D104N/K106S/I251S (human) (UniProt P00740); assay: cell-based or functional assay
FIXa E410N (human) = FIXa E410N (human) (UniProt P00740); assay: cell-based or functional assay
FIXa Y155F/N260S (human) = FIXa Y155F/N260S (human) (UniProt P00740); assay: cell-based or functional assay
[7] = target: FIXa D104N/K106S/Y155F/K247N/N249S (human) (UniProt P00740); assay: cell-based or functional assay
FIXa K400A/R403A (human) = FIXa K400A/R403A (human) (UniProt P00740); assay: cell-based or functional assay
FIXa R318A (human) = FIXa R318A (human) (UniProt P00740); assay: cell-based or functional assay
FIXa R403A (human) = FIXa R403A (human) (UniProt P00740); assay: cell-based or functional assay
[8] = target: FIXa A103N/N105S/K247N/N249S (human) (UniProt P00740); assay: cell-based or functional assay
[9] = target: FIXa D104N/K106S/N260S (human) (UniProt P00740); assay: cell-based or functional assay
FIXa T241N/H243S (human) = FIXa T241N/H243S (human) (UniProt P00740); assay: cell-based or functional assay
[10] = target: FIXa A103N/N105S/I251S (human) (UniProt P00740); assay: cell-based or functional assay
FIXa V202M (human) = FIXa V202M (human) (UniProt P00740); assay: cell-based or functional assay
FIXa R318N/A320S (human) = FIXa R318N/A320S (human) (UniProt P00740); assay: cell-based or functional assay
FIXa Y284N (human) = FIXa Y284N (human) (UniProt P00740); assay: cell-based or functional assay
[11] = target: FIXa D104N/K106S/Y155F/N260S (human) (UniProt P00740); assay: cell-based or functional assay
FIXa K413N (human) = FIXa K413N (human) (UniProt P00740); assay: cell-based or functional assay
FIXa R312Y (human) = FIXa R312Y (human) (UniProt P00740); assay: cell-based or functional assay
[12] = target: FIXa Y155F/K247N/N249S (human) (UniProt P00740); assay: cell-based or functional assay
FIXa K400E/R403E (human) = FIXa K400E/R403E (human) (UniProt P00740); assay: cell-based or functional assay
FIXa E239N (human) = FIXa E239N (human) (UniProt P00740); assay: cell-based or functional assay

Chain of Factor VIIIa (recombinant FVIII, Kogenate FS, activated with alpha-thrombin) (P00451 other isoform, or with tags, fused parts or gaps limits assumed): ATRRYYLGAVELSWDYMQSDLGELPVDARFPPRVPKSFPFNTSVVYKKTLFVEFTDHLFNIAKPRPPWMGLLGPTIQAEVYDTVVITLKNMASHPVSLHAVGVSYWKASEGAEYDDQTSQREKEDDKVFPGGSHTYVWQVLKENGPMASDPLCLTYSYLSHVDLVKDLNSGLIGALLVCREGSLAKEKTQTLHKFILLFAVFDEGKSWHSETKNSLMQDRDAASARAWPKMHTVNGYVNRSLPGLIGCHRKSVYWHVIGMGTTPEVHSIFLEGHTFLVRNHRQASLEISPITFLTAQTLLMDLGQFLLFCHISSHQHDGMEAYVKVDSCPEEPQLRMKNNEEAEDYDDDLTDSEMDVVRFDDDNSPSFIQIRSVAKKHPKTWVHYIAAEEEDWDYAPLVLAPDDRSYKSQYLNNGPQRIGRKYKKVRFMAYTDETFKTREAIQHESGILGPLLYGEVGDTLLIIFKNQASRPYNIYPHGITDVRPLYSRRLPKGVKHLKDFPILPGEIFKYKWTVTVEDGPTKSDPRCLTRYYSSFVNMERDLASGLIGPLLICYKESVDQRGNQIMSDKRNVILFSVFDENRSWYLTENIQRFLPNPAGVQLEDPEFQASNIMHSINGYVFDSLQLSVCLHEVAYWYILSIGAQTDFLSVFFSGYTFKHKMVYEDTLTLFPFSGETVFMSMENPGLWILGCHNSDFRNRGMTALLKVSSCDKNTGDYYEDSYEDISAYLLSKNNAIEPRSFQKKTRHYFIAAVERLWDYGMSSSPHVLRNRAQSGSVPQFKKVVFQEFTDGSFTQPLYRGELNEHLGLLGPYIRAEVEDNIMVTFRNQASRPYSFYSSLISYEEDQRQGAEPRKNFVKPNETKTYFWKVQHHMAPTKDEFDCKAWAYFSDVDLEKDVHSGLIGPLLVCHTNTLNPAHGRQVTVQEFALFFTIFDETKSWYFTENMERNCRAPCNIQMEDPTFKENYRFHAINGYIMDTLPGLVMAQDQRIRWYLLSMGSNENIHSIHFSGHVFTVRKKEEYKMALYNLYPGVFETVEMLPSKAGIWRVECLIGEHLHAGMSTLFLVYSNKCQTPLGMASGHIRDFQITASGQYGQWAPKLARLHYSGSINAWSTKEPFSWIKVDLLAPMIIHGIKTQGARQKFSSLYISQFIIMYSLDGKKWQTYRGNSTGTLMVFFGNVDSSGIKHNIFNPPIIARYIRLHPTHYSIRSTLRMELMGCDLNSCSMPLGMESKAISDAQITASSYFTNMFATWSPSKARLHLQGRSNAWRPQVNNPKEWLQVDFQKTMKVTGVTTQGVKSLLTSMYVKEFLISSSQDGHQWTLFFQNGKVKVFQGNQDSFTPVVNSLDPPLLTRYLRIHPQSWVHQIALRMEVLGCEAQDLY

- kapp (apparent second-order rate constant for inhibition) [2]: 370000 M⁻¹ s⁻¹
Substance: FIXa-Y155F/K247N/N249S/R318Y/R338E/T343R (from UniProt P00740 47-191; P00740 227-461) (enzyme)

- kapp (apparent second-order rate constant for inhibition) [2]: 360000 M⁻¹ s⁻¹
Substance: FIXa-Y155F/K247N/N249S/R318Y/T343R/E410N (from UniProt P00740 47-191; P00740 227-461) (enzyme)

- kapp (apparent second-order rate constant for inhibition) [2]: 12000 M⁻¹ s⁻¹
Substance: FIXa-Y155F/K247N/N249S/R318Y/T343R/R403E (from UniProt P00740 47-191; P00740 227-461) (enzyme)

- kapp (apparent second-order rate constant for inhibition) [2]: 28000 M⁻¹ s⁻¹
Substance: FIXa-Y155F/K247N/N249S/R318Y/T343R/R403E/E410N (from UniProt P00740 47-191; P00740 227-461) (enzyme)

- kapp (apparent second-order rate constant for inhibition) [2]: 130000 M⁻¹ s⁻¹
Substance: FIXa-Y155F/K247N/N249S/R403E/E410N (from UniProt P00740 47-191; P00740 227-461) (enzyme)

- kapp (apparent second-order rate constant for inhibition) [2]: 620000 M⁻¹ s⁻¹
Substance: FIXa-Y155F/K247N/N249S/T343R/R403E/E410N (from UniProt P00740 47-191; P00740 227-461) (enzyme)

- kapp (apparent second-order rate constant for inhibition) [2]: 200000 M⁻¹ s⁻¹
Substance: FIXa-Y155F/R318Y/T343R/E410N (from UniProt P00740 47-191; P00740 227-461) (enzyme)

- kapp (apparent second-order rate constant for inhibition) [2]: 880000 M⁻¹ s⁻¹
Substance: FIXa-Y155F/T343R/R403E/E410N (from UniProt P00740 47-191; P00740 227-461) (enzyme)

- IC50 [3]: 30 nM
Substance: Plasma Purified FIXa (Haematologic Technologies, Inc.) (from UniProt P00740 47-191; P00740 227-461) (enzyme)

Further lines, the substance ahead of its results:

Substance: BeneFIX Coagulation Factor IX (Recombinant) (activated, FIXa) (from UniProt P00740 47-191; P00740 227-461) (enzyme)
- ATIII Kapp (second-order rate constant of inhibition) [1]: 1.6e+07 M⁻¹ s⁻¹

Substance: FIX of SEQ ID NO: 394, with the replacements R318Y/R338E/T343R (activated, FIXa) (from UniProt P00740 47-191; P00740 227-461) (enzyme)
- ATIII Kapp (second-order rate constant of inhibition) [1]: 1.1e+06 M⁻¹ s⁻¹

Substance: FIXa-Y155F/K247N/N249S/R338E/E410N (from UniProt P00740 47-191; P00740 227-461) (enzyme)
- kapp (apparent second-order rate constant for inhibition) [2]: 2.9e+06 M⁻¹ s⁻¹

Substance: FIXa-Y155F/K247N/N249S/R338E/T343R/R403E (from UniProt P00740 47-191; P00740 227-461) (enzyme)
- kapp (apparent second-order rate constant for inhibition) [2]: 44000 M⁻¹ s⁻¹

Substance: FIXa-Y155F/R318Y/T343R/R403E (from UniProt P00740 47-191; P00740 227-461) (enzyme)
- kapp (apparent second-order rate constant for inhibition) [2]: 11000 M⁻¹ s⁻¹

Substance: FIXa-Y155F/R338E/T343R/E410N (from UniProt P00740 47-191; P00740 227-461) (enzyme)
- kapp (apparent second-order rate constant for inhibition) [2]: 1.3e+07 M⁻¹ s⁻¹

Substance: Plasma Purified FIXa (from UniProt P00740 47-191; P00740 227-461) (enzyme)
- Kd [4]: 102 nM
- IC50 [5]: 30 nM

Substance: WT-recombinant FIX (native amino-acid sequence, made in the Sponsor's laboratory; activated, FIXa) (from UniProt P00740 47-191; P00740 227-461) (enzyme)
- ATIII Kapp (second-order rate constant of inhibition) [1]: 2.4e+07 M⁻¹ s⁻¹

Substance: plasma purified human AT-III (antithrombin III), in complex with full-length unfractionated heparin (from UniProt P01008 33-464)
- K0.5 (nM), inhibition of FIXa by AT-III/UFH (FIXa R318Y (human)): 1980 nM
- K0.5 (nM), inhibition of FIXa by AT-III/UFH (FIXa A204M (human)): 29 nM
- K0.5 (nM), inhibition of FIXa by AT-III/UFH (FIXa D203M (human)): 11 nM
- K0.5 (nM), inhibition of FIXa by AT-III/UFH (FIXa F314N/H315S (human)): 104 nM
- K0.5 (nM), inhibition of FIXa by AT-III/UFH (FIXa D203Y (human)): 16 nM
- K0.5 (nM), inhibition of FIXa by AT-III/UFH (FIXa R318E (human)): > 10000 nM
- K0.5 (nM), inhibition of FIXa by AT-III/UFH (FIXa N260S (human)): 312 nM
- K0.5 (nM), inhibition of FIXa by AT-III/UFH [6]: 28 nM
- K0.5 (nM), inhibition of FIXa by AT-III/UFH (FIXa E410N (human)): 9 nM
- K0.5 (nM), inhibition of FIXa by AT-III/UFH (FIXa Y155F/N260S (human)): 77 nM
- K0.5 (nM), inhibition of FIXa by AT-III/UFH [7]: 27 nM
- K0.5 (nM), inhibition of FIXa by AT-III/UFH (FIXa K400A/R403A (human)): > 999 nM
- K0.5 (nM), inhibition of FIXa by AT-III/UFH (FIXa R318A (human)): 4140 nM
- K0.5 (nM), inhibition of FIXa by AT-III/UFH (FIXa R403A (human)): 190 nM
- K0.5 (nM), inhibition of FIXa by AT-III/UFH [8]: 53 nM
- K0.5 (nM), inhibition of FIXa by AT-III/UFH [9]: 228 nM
- K0.5 (nM), inhibition of FIXa by AT-III/UFH (FIXa T241N/H243S (human)): 21 nM
- K0.5 (nM), inhibition of FIXa by AT-III/UFH [10]: 42 nM
- K0.5 (nM), inhibition of FIXa by AT-III/UFH (FIXa V202M (human)): 14 nM
- K0.5 (nM), inhibition of FIXa by AT-III/UFH (FIXa R318N/A320S (human)): > 999 nM
- K0.5 (nM), inhibition of FIXa by AT-III/UFH (FIXa Y284N (human)): 41 nM
- K0.5 (nM), inhibition of FIXa by AT-III/UFH [11]: 292 nM
- K0.5 (nM), inhibition of FIXa by AT-III/UFH (FIXa K413N (human)): 27 nM
- K0.5 (nM), inhibition of FIXa by AT-III/UFH (FIXa R312Y (human)): 2500 nM
- K0.5 (nM), inhibition of FIXa by AT-III/UFH [12]: 13 nM
- K0.5 (nM), inhibition of FIXa by AT-III/UFH (FIXa K400E/R403E (human)): > 999 nM
- K0.5 (nM), inhibition of FIXa by AT-III/UFH (FIXa E239N (human)): 132 nM
